Measurements as given in US12508311B2, “Fusion protein, and preparation method and use thereof” (SUN YAT-SEN UNIVERSITY, priority 2021, dated 2025).

Legend:
[1] = target: T1, KRas protein in HT29 (KRas wt) cells (Homo sapiens, UniProt P01116); assay: Co-immunoprecipitation (Co-IP) in HT29 cells; type: cell-based; conditions: 20 μg/mL, 24 hours, Lys05 10 μM
T1 construct: host or cells: HT29
Description: The co-immunoprecipitation experiment (Co-IP) was an important means to detect the intracellular interaction of the protein. […] The experiment was carried out in the presence of the lysosome inhibitor Lys05 with a final concentration of 10 μM. • (2) The cells were cultured and treated at 37° C. for 24 hours, and then cleaned twice with PBS, and 1 mL of 0.25% pancreatin was added into each culture dish to digest the cells and make the cells fall off from the culture dish wall. Then, 2 mL of complete culture solution was added into each culture dish to stop the digestion , centrifuged at the room temperature and 300 g for 3 minutes, to collect the cells. […] The colorectal cancer cells were lysed on ice, turned upside down for several times every 5 minutes gently without vortex, and centrifuged at 4° C. and 12,000 rpm for 30 minutes after being lysed for 30 minutes. • (4) The supernatant was transferred to a new EP tube, the protein concentration was measured by the BCA method, and then 1 mg of protein was taken from each group for a Co-IP reaction. […] Meanwhile, 30 μL of protein sample was also taken from the Input group, vortically vibrated for 1 minute, boiled in boiled water for 10 minutes, and centrifuged, and the supernatant was collected in a new 1.5 mL EP tube. • (8) The protein concentration was measured by the BCA method. […]

HT29 cells = assay: Flow cytometry of tumor cell targeting, HT29; type: cell-based, human; conditions: tested as 60 nM TKD-Cy5, 1 hour, Lys 05 10 μM
Description: Wherein, the protein C18 column (25 cm×10 mm) was used, with sample injection of 2×400 μL each time, and gradient elution was carried out for 30 minutes, 0.1% TFA (trifluoroacetic acid) solution to MeCN (acetonitrile): H2O (0.1% TFA)=70:30, and a flow rate was 4 mL/min. • (4) Target color tape peaks were collected, and the retention time of a labeled polypeptide was longer than that of an unlabeled polypeptide. • (5) The TKD-Cy5 molecule was diluted to 60 μM, and stored in a PBS solution, and kept in the dark at −20° C. 2. […] The cells were treated with corresponding drugs, namely, in the experimental groups, the cells were treated with 60 nM TKD-Cy5 coupling molecule, and in the control groups, the cells were treated with the Cy5 single molecule with corresponding concentration. The lysosome inhibitor Lys 05 with the final concentration of 10 μM was added into the control groups and the experimental groups at the same time, and the final volume of the culture solution in each well was 1 mL. […] The cells were resuspended with the PBS buffer solution, and centrifuged again, and the supernatant was discarded. The operation was repeated for three times. Finally, the cleaned cells were resuspended in 0.2 mL of PBS, wrapped with foil paper, and then analyzed on the flow cytometer (company: BECKMAN COULTER; model: Cytoflex), with the fluorescence channel of APC-A.

[2] = Toxic and side effects in mice (body weight, HE histopathology); type: in vivo; conditions: 25 and 50 mg/kg intraperitoneal, seven times (3 weeks)
Description: • (1) Balb/c nude mice, female, 4 weeks to 5 weeks old, purchased from Guangdong Laboratory Animal Center and raised in Laboratory Animal Center of Sun Yat-sen University, were used in this experiment. […] The mice were administered once every three days at a fixed time. Meanwhile, changes in body state, mental state and weight of the mice were observed and recorded. • (3) After continuous administration for seven times (3 weeks), the mice were euthanized (killed by cervical dislocation). […] All the animal experiments were carried out within relevant regulations of animal ethics of Sun Yat-sen University.

B1: TKD: fusion protein: tumour-cell-penetrating peptide BR2, anti-KRas nanobody VHH and lysosome recognition peptide CTM; SEQ ID NO.4 (protein)
chain: RAGLQFPVGRLLRRLLRDVQLQESGGGLVQAGGSLRLSCVASGRTFSTYPTGWFRQAPGKEREFVARINLSGGITNYADSVKGRFTISRDNAKNTVYLQMNSLKPEDTAVYYCGGGSTTWAGGIPTNFDYWGQGTQVTVSSGRKFERQKILDQRFFE
[1]
  binding to KRas protein in cells (Co-IP): could pass through the cell membrane and bind to the wild-type and mutant-type KRas proteins in cells without discrimination
HT29 cells
  entry into cells (flow cytometry, Cy5 fluorescence): could specifically recognize and pass through the cell membrane to enter the colorectal cancer cells
[2]; once every three days, vs PBS
  changes in body weight: did not show obvious changes in body weight
[2]
  pathological analysis of lung, liver, spleen and kidney (HE): did not damage vital organs including lung, liver, spleen and kidney of the mice
